Measured values taken from patent US20230002480A1.

Columns and labels:
Test in all cases: cell-based or functional assay
[1] = target: HIV-1 Env of pseudovirus BJOX015000.11.5 (HIV-1)
[2] = target: HIV-1 Env of pseudovirus HIV-16055-2.3 (HIV-1)
[3] = target: HIV-1 Env of pseudovirus 62357_14_D3_4589 (HIV-1)
[4] = target: HIV-1 Env of pseudovirus CAP45.2.00.G3 (HIV-1)
[5] = target: HIV-1 Env of pseudovirus P0402_c2_11 (HIV-1)
[6] = target: HIV-1 Env of pseudovirus BJOX009000.02.4 (HIV-1)
[7] = target: HIV-1 Env of pseudovirus 249M B10 (HIV-1)
[8] = target: HIV-1 Env of pseudovirus 1006_11_C3_1601 (HIV-1)
[9] = target: HIV-1 Env of pseudovirus 6545.v4.c1 (HIV-1)
[10] = target: HIV-1 Env of pseudovirus ZM53M.PB12 (HIV-1)
[11] = target: HIV-1 Env of pseudovirus 191955_A11 (HIV-1)
[12] = target: HIV-1 Env of pseudovirus SC422661.8 (HIV-1)
[13] = target: HIV-1 Env of pseudovirus 6240_08_TA5_4622 (HIV-1)
[14] = target: HIV-1 Env of pseudovirus 1394C9G1(Rev-) (HIV-1)
[15] = target: HIV-1 Env of pseudovirus CNE19 (HIV-1)
[16] = target: HIV-1 Env of pseudovirus 1012_11_TC21_3257 (HIV-1)
[17] = target: HIV-1 Env of pseudovirus CNE58 (HIV-1)
[18] = target: HIV-1 Env of pseudovirus 6041.v3.c23 (HIV-1)
[19] = target: HIV-1 Env of pseudovirus RHPA4259.7 (HIV-1)
[20] = target: HIV-1 Env of pseudovirus Ce703010054_2A2 (HIV-1)
[21] = target: HIV-1 Env of pseudovirus Q842.d12 (HIV-1)
[22] = target: HIV-1 Env of pseudovirus Du156.12 (HIV-1)
[23] = target: HIV-1 Env of pseudovirus 211-9 (HIV-1)
[24] = target: HIV-1 Env of pseudovirus R2184.c04 (HIV-1)
[25] = target: HIV-1 Env of pseudovirus Du422.1 (HIV-1)
[26] = target: HIV-1 Env of pseudovirus 231965.c01 (HIV-1)
[27] = target: HIV-1 Env of pseudovirus C4118.c09 (HIV-1)
[28] = target: HIV-1 Env of pseudovirus CNE17 (HIV-1)
[29] = target: HIV-1 Env of pseudovirus X1632_S2_B10 (HIV-1)
[30] = target: HIV-1 Env of pseudovirus 3103.v3.c10 (HIV-1)
[31] = target: HIV-1 Env of pseudovirus CNE30 (HIV-1)
[32] = target: HIV-1 Env of pseudovirus Q259.d2.17 (HIV-1)
[33] = target: HIV-1 Env of pseudovirus ZM109F.PB4 (HIV-1)
[34] = target: HIV-1 Env of pseudovirus X1254_c3 (HIV-1)
[35] = target: HIV-1 Env of pseudovirus 235-47 (HIV-1)
[36] = target: HIV-1 Env of pseudovirus 6480.v4.c25 (HIV-1)
[37] = target: HIV-1 Env of pseudovirus BF1266.431a (HIV-1)

Substance: N49P6 (antibody)
- IC50 [1]: 0.07 mg/L
- IC80 [1]: 0.312 mg/L
- MPI [1]: 100
- IC50 [2]: 0.117 mg/L
- IC80 [2]: 0.586 mg/L
- MPI [2]: 100
- IC50 [3]: 0.098 mg/L
- IC80 [3]: 0.296 mg/L
- MPI [3]: 100
- IC50 [4]: 21.7 mg/L
- IC80 [4]: > 50 mg/L
- MPI [4]: 75
- IC50 [5]: 3.54 mg/L
- IC80 [5]: 19 mg/L
- MPI [5]: 99
- IC50 [6]: 0.32 mg/L
- IC80 [6]: 1.46 mg/L
- MPI [6]: 100
- IC50 [7]: 0.122 mg/L
- IC80 [7]: 0.549 mg/L
- MPI [7]: 100
- IC50 [8]: 0.068 mg/L
- IC80 [8]: 0.209 mg/L
- MPI [8]: 100
- IC50 [9]: 24.5 mg/L
- IC80 [9]: > 50 mg/L
- MPI [9]: 76
- IC50 [10]: 0.538 mg/L
- IC80 [10]: 1.71 mg/L
- MPI [10]: 100
- IC50 [11]: 0.124 mg/L
- IC80 [11]: 0.344 mg/L
- MPI [11]: 100
- IC50 [12]: 0.129 mg/L
- IC80 [12]: 0.36 mg/L
- MPI [12]: 100
- IC50 [13]: 0.567 mg/L
- IC80 [13]: 1.76 mg/L
- MPI [13]: 100
- IC50 [14]: 17.5 mg/L
- IC80 [14]: > 50 mg/L
- MPI [14]: 80
- IC50 [15]: 0.044 mg/L
- IC80 [15]: 0.156 mg/L
- MPI [15]: 100
- IC50 [16]: 0.137 mg/L
- IC80 [16]: 0.502 mg/L
- MPI [16]: 100
- IC50 [17]: 0.036 mg/L
- IC80 [17]: 0.1 mg/L
- MPI [17]: 100
- IC50 [18]: 5.53 mg/L
- IC80 [18]: 43.2 mg/L
- MPI [18]: 88
- IC50 [19]: 0.117 mg/L
- IC80 [19]: 0.443 mg/L
- MPI [19]: 100
- IC50 [20]: 0.245 mg/L
- IC80 [20]: 0.841 mg/L
- MPI [20]: 100
- IC50 [21]: 0.034 mg/L
- IC80 [21]: 0.091 mg/L
- MPI [21]: 100
- IC50 [22]: 0.082 mg/L
- IC80 [22]: 0.28 mg/L
- MPI [22]: 100
- IC50 [23]: 8.49 mg/L
- IC80 [23]: 27.7 mg/L
- MPI [23]: 93
- IC50 [24]: 0.028 mg/L
- IC80 [24]: 0.077 mg/L
- MPI [24]: 100
- IC50 [25]: 44 mg/L
- IC80 [25]: > 50 mg/L
- MPI [25]: 57
- IC50 [26]: 9.24 mg/L
- IC80 [26]: 39.4 mg/L
- MPI [26]: 87
- IC50 [27]: 0.092 mg/L
- IC80 [27]: 0.243 mg/L
- MPI [27]: 100
- IC50 [28]: 0.34 mg/L
- IC80 [28]: 2.1 mg/L
- MPI [28]: 100
- IC50 [29]: 23.1 mg/L
- IC80 [29]: > 50 mg/L
- MPI [29]: 69
- IC50 [30]: 0.582 mg/L
- IC80 [30]: 1.57 mg/L
- MPI [30]: 100
- IC50 [31]: 0.457 mg/L
- IC80 [31]: 1.54 mg/L
- MPI [31]: 100
- IC50 [32]: 24.4 mg/L
- IC80 [32]: > 50 mg/L
- MPI [32]: 75
- IC50 [33]: 0.084 mg/L
- IC80 [33]: 0.29 mg/L
- MPI [33]: 99
- IC50 [34]: 15.7 mg/L
- IC80 [34]: 34.2 mg/L
- MPI [34]: 91
- IC50 [35]: 13 mg/L
- IC80 [35]: 46.4 mg/L
- MPI [35]: 82
- IC50 [36]: 0.089 mg/L
- IC80 [36]: 0.427 mg/L
- MPI [36]: 100
- IC50 [37]: 0.083 mg/L
- IC80 [37]: 0.283 mg/L
- MPI [37]: 100
